# From FireProtDB (doi:10.1002/pro.5560070509)
# B1: NADP-dependent isopropanol dehydrogenase, P25984 (parent)
# chain: MKGFAMLGINKLGWIEKERPVAGSYDAIVRPLAVSPCTSDIHTVFEGALGDRKNMILGHEAVGEVVEVGSEVKDFKPGDRVIVPCTTPDWRSLEVQAGFQQHSNGMLAGWKFSNFKDGVFGEYFHVNDADMNLAILPKDMPLENAVMITDMMTTGFHGAELADIQMGSSVVVIGIGAVGLMGIAGAKLRGAGRIIGVGSRPICVEAAKFYGATDILNYKNGHIVDQVMKLTNGKGVDRVIMAGGGSETLSQAVSMVKPGGIISNINYHGSGDALLIPRVEWGCGMAHKTIKGGLCPGGRLRAEMLRDMVVYNRVDLSKLVTHVYHGFDHIEEALLLMKDKPKDLIKAVVIL
# Variants of: B1
# Details: Clostridium beijerinckii; pH 8.25; Thermal; DSC; Sodium phosphate 25 mM; NaCl 1 M; reversible: yes; structure 1KEV; whole UniProt chain shown
Variant,Tm [°C],"change of melting temperature, mutant - wild type (higher = more stable) [°C]"
S24P,69.9,3.9
A347P,68.6,2.6
L275P,63.7,-2.3
S24P L316P,77.1,11.1
A22P,66.7,0.7
H222P,59.5,-6.5
T149P,65,-1
A177P,66.5,0.5
L316P,76.8,10.8
